# From patent US20070014736A1, “Methods of delivering corticotroph-derived glycoprotein hormone” (priority 2005, published 2007)
# B1: CGH: heterodimeric protein hormone comprised of alpha subunit GPHA2 and beta subunit GPHB5, recombinantly produced in CHO cells (protein)
# chain 1: QEAVIPGCHLHPFNVTVRSDRQGTCQGSHVAQACVGHCESSAFPSRYSVLVASGYRHNITSVSQCCTISGLKKVKVQLQCVGSRREELEIFTARACQCDMCRLSRY
# chain 2: ASSGNLRTFVGCAVREFTFLAKKPGCRGLRITTDACWGRCETWEKPILEPPYIEAHHRVCTYNETKQVTVKLPNCAPGVDPFYTYPVAIRCDCGACSTATTECETI
# Experiments:
# adrenal glands = experiment: Intraperitoneal recombinant CGH for two weeks, adrenal weight; format: in vivo, mice; settings: 0.25 mg/kg CGH i.p. daily, day 15, female C57BL/6
# Text: Summary: Mice were exposed to CGH through infection with adenovirus particles expressing GPHA2 and GPHB5, leading to overexpression and secretion of CGH from the liver of these animals. […] The hypertrophy was apparent in the inner cortical layers, the zona fasciculata and the zona reticularis. Similarly, mice were exposed to CGH through intraperitoneal injection of recombinant CGH protein alone, recombinant CGH protein along with the glucocorticoid Dexamethasone (Dex), Dex alone, or PBS alone daily for two weeks.
# Sixteen C57BL/6 female mice at 8 weeks of age were separated into four groups. The first group received daily injections of 0.25 mg/kg of recombinant CGH protein intraperitoneally. The second group received daily injections of PBS using the same procedure. The third group received daily injections of 0.25 mg/kg of CGH plus 0.05 mg/kg Dex and the final group received 0.5 mg/kg Dex, alone. Animals were sacrificed on day 15 and the adrenal glands were isolated and weighed. Example 5 describes the expression and purification of recombinant CGH protein used in this experiment.
# [1] = system: differentiated 3T3 L1 adipocytes; experiment: CRE-luciferase reporter assay in differentiated 3T3 L1 adipocytes; format: cell-based, murine
# Text: (§1) Differentiated murine 3T3 L1 adipocytes and primary human adipocytes were used to study signal transduction of CGH. 3T3 L1 fibroblasts were differentiated into adipocytes and the cells were transduced with recombinant adenovirus containing a reporter construct, a firefly luciferase gene under the control of cAMP response element (CRE) enhancer sequences. This assay system detects cAMP-mediated gene induction downstream of activation of Gs-coupled G-protein coupled receptors (GPCR's). […] In a separate experiment, undifferentiated 3T3 L1 fibroblasts were transduced with the recombinant adenovirus. […] In another experiment, human primary adipocytes were also transduced with the recombinant adenovirus containing a reporter construct. Treatment of the human adipocytes with isoproterenol produced a 17-fold induction of luciferase expression.
# (§2) Cells were cultured at 37° C. in an 8% CO2 humidified incubator. Cells were seeded to collagen-coated 96-well plates (Becton Dickinson, cat. #356407) at a density of 5,000 cells per well. […] Luciferase activity was measured on a microplate luminometer (PerkinElmer Life Sciences, Inc., model LB 96V2R) following automated injection of 40 μl of luciferase assay substrate into each well. […]
# [2] = system: undifferentiated 3T3 L1 fibroblasts; experiment: CRE-luciferase reporter assay in undifferentiated 3T3 L1 fibroblasts; format: cell-based, murine
# Text: as §1, §2
# human primary adipocytes = experiment: CRE-luciferase reporter assay in human primary adipocytes; format: cell-based
# Text: as §1, §2
molecule,measurement,setting,value
B1,Average adrenal weight/100 g body weight,adrenal glands,22.26 +/− 0.99
same,induction of luciferase expression,[1],27 fold
same,reporter gene induction,[2],did not result in an increase in reporter gene induction
same,induction of luciferase expression / reporter gene,human primary adipocytes,14 fold
